Publication PMC6785124, “Allosteric regulation of a prokaryotic small Ras-like GTPase contributes to cell polarity oscillations in bacterial motility” (PLoS Biology, 2019)
Where a chain is given by its changes, count along the chain named. Each block holds one molecule with its values, some of them ahead of it.

Tests used:
[1] = biological target: Myxococcus xanthus Mutual gliding motility A, MxMglA(His6) (Myxococcus xanthus) (UniProt Q1DB04); test: fluorescence polarisation; fluorescence anisotropy of 400 nM mant-GppNHp (m-GNP) mixed with 2 μM MxMglA or its mutant, titrated with MxMglB or MxMglB^ΔCt (concentration as MglB dimer); one site-specific binding fit
[2] = biological target: T1, Myxococcus xanthus Mutual gliding motility B, full-length MxMglB(His6) (Myxococcus xanthus), Q1DB03; test: crystal structure; MxMglA and MxMglB mixed 1:1 (MglB as monomer), 4 mg/ml each, in A50 buffer with 5 mM MgCl2 and 2 mM GTPγS; PEG 4000 or PEG 3350 with 200 mM ammonium sulphate; conditions: remark: other sources report otherwise
T1 chain: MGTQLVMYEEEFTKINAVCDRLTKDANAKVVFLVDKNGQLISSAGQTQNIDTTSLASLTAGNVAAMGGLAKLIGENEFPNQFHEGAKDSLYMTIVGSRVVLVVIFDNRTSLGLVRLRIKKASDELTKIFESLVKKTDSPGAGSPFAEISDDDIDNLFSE

[3] = biological target: T2, Myxococcus xanthus Mutual gliding motility A, MxMglA(His6) (Myxococcus xanthus, UniProt Q1DB04 1-195); test: fluorescence polarisation; fluorescence anisotropy of 400 nM mant-GDP (m-GDP) mixed with 2 μM MxMglA or its mutant, titrated with MxMglB or MxMglB^ΔCt (concentration as MglB dimer); one site-specific binding fit; conditions: both partners purified
T2 construct: MglA, small Ras-like GTPase of Myxococcus xanthus; gene mglA amplified from genomic DNA (DSMZ 16526) and cloned into pHis17 between NdeI and BamHI; In the assays it carried m-GDP, m-GNP (mant-GppNHp) or GTPγS; source: E. coli BL21-DE3, purified (HisTrap, Superdex75); not shown: His6, C-terminal, kept
T2 sequence: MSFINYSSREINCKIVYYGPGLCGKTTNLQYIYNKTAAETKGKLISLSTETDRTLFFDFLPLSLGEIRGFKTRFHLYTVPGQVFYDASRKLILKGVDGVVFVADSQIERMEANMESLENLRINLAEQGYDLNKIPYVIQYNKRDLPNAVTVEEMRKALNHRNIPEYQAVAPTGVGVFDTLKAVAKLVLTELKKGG

[4] = biological target: T2, Myxococcus xanthus Mutual gliding …; test: fluorescence polarisation; fluorescence anisotropy of 400 nM mant-GppNHp (m-GNP) mixed with 2 μM MxMglA or its mutant, titrated with MxMglB or MxMglB^ΔCt (concentration as MglB dimer); one site-specific binding fit; conditions: both partners purified
[5] = biological target: T3, MxMglA^K, MxMglA K181A and K185A double mutant (Myxococcus xanthus, UniProt Q1DB04 1-195, K181A | K185A); test: as above; conditions: both partners purified
T3 construct: Mutant of m1; source: E. coli BL21-DE3, purified (protocol similar to MxMglA(His6))
T3 sequence: T2 sequence with K181A, K185A

[6] = biological target: T4, MxMglA^L, MxMglA L64A and I67A double mutant (Myxococcus xanthus, UniProt Q1DB04 1-195, L64A | I67A); test: as above; conditions: both partners purified
T4 construct: MglA of Myxococcus xanthus with L64A and I67A (β2-β3 loop, interswitch region); Mutant of m1; source: E. coli BL21-DE3, purified (protocol similar to MxMglA(His6))
T4 sequence: T2 sequence with L64A, I67A

[7] = biological target: T5, MxMglA^Q82L, active site mutant of MxMglA (Myxococcus xanthus, UniProt Q1DB04 1-195, Q82L); test: as above; conditions: both partners purified
T5 construct: MglA of Myxococcus xanthus with Q82L (active site); Mutant of m1; source: E. coli BL21-DE3, purified (protocol similar to MxMglA(His6))
T5 sequence: T2 sequence with Q82L

[8] = biological target: T2, Myxococcus xanthus Mutual gliding …; test: crystal structure; MxMglA and MxMglB mixed 1:1 (MglB as monomer), 4 mg/ml each, in A50 buffer with 5 mM MgCl2 and 2 mM GTPγS; PEG 4000 or PEG 3350 with 200 mM ammonium sulphate; conditions: both partners purified

Molecule: MxMglB^ΔCt(His6), truncated MxMglB lacking the C-terminal helix (domain or fragment)
Kd [1]: 290 nM

B1: Myxococcus xanthus Mutual gliding motility B, full-length MxMglB(His6) (natural protein, UniProt Q1DB03 1-159, looked up)
chain: T1 chain
notes: Rbl/LC7 core residues 10-131, Ct-helix residues 147-157; also called MglB1 and MglB2 (the two protomers in the crystal); source: E. coli BL21-AI, purified (HisTrap, Superdex75); not shown: His6, C-terminal, kept
stoichiometry N [2]: 2
Kd [3]: 120 ± 30 nM
Kd [4]: 100 ± 40 nM
binding result [5]: binds
binding result [6]: binds
binding result [7]: binds

Other lines, results leading:

binding result [8]: binds
B2: selenomethionine-labeled MxMglB^I148M (natural protein, Myxococcus xanthus)
chain: T1 chain with I148M
modifications: selenomethionine-labeled
notes: MglB of Myxococcus xanthus with Ile148 mutated to methionine; construct without histidine tag; Made to confirm the registry of the Ct-helix; Probably a point mutant of full-length MglB

binding result [8]: binds
B3: selenomethionine-labeled MxMglB^L156M (natural protein, Myxococcus xanthus)
chain: T1 chain with L156M
modifications: selenomethionine-labeled
notes: MglB of Myxococcus xanthus with Leu156 mutated to methionine; construct without histidine tag; Made to confirm the registry of the Ct-helix; Probably a point mutant of full-length MglB
